B1: PDLIM4 (parent)
chain: FLDERLYCESHAKARVKPPEGYDV

Variants of: B1
Experiment: protein stability index of a GFP-peptide fusion (GPS, HEK-293T) (PSI 1-6); higher = more stable
Conditions: c terminus: a fixed tail appended
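Also: lentivirally expressed fusions sorted by FACS into six bins by GFP to DsRed ratio, PSI derived from sequencing read proportions per bin multiplied by bin number.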

Compared with FLDERKYCESHAKARVKPPEGYDV [L6K], FLDERNYCESHAKARVKPPEGYDV [L6N] is higher in protein stability index: 2.09 for the first, 3.08 for the second.

Compared with FLDERFYCESHAKARVKPPEGYDV [L6F], FLDERGYCESHAKARVKPPEGYDV [L6G] is higher in protein stability index: 3.03 for the first, 3.42 for the second.

Going from FLDERDYCESHAKARVKPPEGYDV [L6D] to FLDERMYCESHAKARVKPPEGYDV [L6M], the protein stability index falls from 4.54 to 2.87.

Compared with FLDERSYCESHAKARVKPPEGYDV [L6S], FLDEREYCESHAKARVKPPEGYDV [L6E] is higher in protein stability index: 2.47 for the first, 3.09 for the second.

Going from FLDERVYCESHAKARVKPPEGYDV [L6V] to FLDERQYCESHAKARVKPPEGYDV [L6Q], the protein stability index rises from 1.59 to 2.5.

Compared with FLDERRYCESHAKARVKPPEGYDV [L6R], FLDERHYCESHAKARVKPPEGYDV [L6H] is higher in protein stability index: 1.45 for the first, 1.72 for the second.

Compared with FLDERPYCESHAKARVKPPEGYDV [L6P], FLDERIYCESHAKARVKPPEGYDV [L6I] is higher in protein stability index: 1.7 for the first, 1.97 for the second.

First: FLDERTYCESHAKARVKPPEGYDV [L6T]
Second: FLDERLYCDSHAKARVKPPEGYDV [E9D]
The protein stability index of the first is higher: 2.55 for the first, 1.8 for the second.

First: FLDERLYCFSHAKARVKPPEGYDV [E9F]
Second: FLDERLYCKSHAKARVKPPEGYDV [E9K]
The protein stability index of the first is higher: 1.49 for the first, 1.42 for the second.

First: FLDERLYCGSHAKARVKPPEGYDV [E9G]
Second: FLDERLYCHSHAKARVKPPEGYDV [E9H]
The protein stability index of the first is lower: 1.74 for the first, 2.13 for the second.

First: FLDERLYCASHAKARVKPPEGYDV [E9A]
Second: FLDERLYTESHAKARVKPPEGYDV [C8T]
The protein stability index of the first is lower: 1.57 for the first, 2.62 for the second.

First: FLDERLYSESHAKARVKPPEGYDV [C8S]
Second: FLDERLYIESHAKARVKPPEGYDV [C8I]
The protein stability index of the first is higher: 2.39 for the first, 1.41 for the second.

First: FLDERLYFESHAKARVKPPEGYDV [C8F]
Second: FLDERLYLESHAKARVKPPEGYDV [C8L]
The protein stability index of the first is higher: 2.3 for the first, 2.26 for the second.

Going from FLDERLYHESHAKARVKPPEGYDV [C8H] to FLDERLYDESHAKARVKPPEGYDV [C8D], the protein stability index rises from 2.71 to 3.78.

First: FLDERLYWESHAKARVKPPEGYDV [C8W]
Second: FLDERLYRESHAKARVKPPEGYDV [C8R]
The protein stability index of the first is higher: 2.14 for the first, 1.81 for the second.

First: FLDERLYEESHAKARVKPPEGYDV [C8E]
Second: FLDERLYVESHAKARVKPPEGYDV [C8V]
The protein stability index of the first is higher: 3.52 for the first, 2.28 for the second.

First: FLDERLYQESHAKARVKPPEGYDV [C8Q]
Second: FLDERLYGESHAKARVKPPEGYDV [C8G]
The protein stability index of the first is lower: 2.44 for the first, 3.41 for the second.

First: FLDERLYYESHAKARVKPPEGYDV [C8Y]
Second: FLDERLYAESHAKARVKPPEGYDV [C8A]
The protein stability index of the first is higher: 2.17 for the first, 1.53 for the second.

Compared with FLDERLYNESHAKARVKPPEGYDV [C8N], FLDERLYMESHAKARVKPPEGYDV [C8M] is lower in protein stability index: 2.59 for the first, 1.64 for the second.

Compared with FLDERLYKESHAKARVKPPEGYDV [C8K], FLDRRLYCESHAKARVKPPEGYDV [E4R] is higher in protein stability index: 1.58 for the first, 3.33 for the second.

Compared with FLDYRLYCESHAKARVKPPEGYDV [E4Y], FLDCRLYCESHAKARVKPPEGYDV [E4C] is higher in protein stability index: 2.02 for the first, 3.33 for the second.

First: FLDLRLYCESHAKARVKPPEGYDV [E4L]
Second: FLDVRLYCESHAKARVKPPEGYDV [E4V]
The protein stability index of the first is higher: 2.34 for the first, 2.06 for the second.

First: FLDDRLYCESHAKARVKPPEGYDV [E4D]
Second: FLDSRLYCESHAKARVKPPEGYDV [E4S]
The protein stability index of the first is lower: 1.71 for the first, 5.15 for the second.

Going from FLDESLYCESHAKARVKPPEGYDV [R5S] to FLDETLYCESHAKARVKPPEGYDV [R5T], the protein stability index falls from 2.37 to 1.3.

Going from FLDEALYCESHAKARVKPPEGYDV [R5A] to FLDEFLYCESHAKARVKPPEGYDV [R5F], the protein stability index falls from 1.86 to 1.52.

Compared with FLDEMLYCESHAKARVKPPEGYDV [R5M], FLDENLYCESHAKARVKPPEGYDV [R5N] is lower in protein stability index: 2.33 for the first, 1.49 for the second.

Going from FLDEWLYCESHAKARVKPPEGYDV [R5W] to FLDELLYCESHAKARVKPPEGYDV [R5L], the protein stability index falls from 3.09 to 1.98.

First: FLDEVLYCESHAKARVKPPEGYDV [R5V]
Second: FLDEPLYCESHAKARVKPPEGYDV [R5P]
The protein stability index of the first is lower: 2.35 for the first, 2.98 for the second.

Going from FLDEILYCESHAKARVKPPEGYDV [R5I] to FLDEKLYCESHAKARVKPPEGYDV [R5K], the protein stability index falls from 2.24 to 1.66.

First: FLDEDLYCESHAKARVKPPEGYDV [R5D]
Second: FLDEYLYCESHAKARVKPPEGYDV [R5Y]
The protein stability index of the first is higher: 2.11 for the first, 1.42 for the second.

First: FLDEELYCESHAKARVKPPEGYDV [R5E]
Second: FLDEGLYCESHAKARVKPPEGYDV [R5G]
The protein stability index of the first is lower: 2.42 for the first, 2.47 for the second.

Compared with FLDERLQCESHAKARVKPPEGYDV [Y7Q], FLDERLTCESHAKARVKPPEGYDV [Y7T] is higher in protein stability index: 4.26 for the first, 5.4 for the second.

Compared with FLDERLDCESHAKARVKPPEGYDV [Y7D], FLDERLLCESHAKARVKPPEGYDV [Y7L] is lower in protein stability index: 4.71 for the first, 3.18 for the second.

Going from FLDERLRCESHAKARVKPPEGYDV [Y7R] to FLDERLMCESHAKARVKPPEGYDV [Y7M], the protein stability index falls from 3.99 to 3.6.

Going from FLDERLCCESHAKARVKPPEGYDV [Y7C] to FLDERLKCESHAKARVKPPEGYDV [Y7K], the protein stability index rises from 3.66 to 4.06.

Going from FLDERLPCESHAKARVKPPEGYDV [Y7P] to FLDERLACESHAKARVKPPEGYDV [Y7A], the protein stability index falls from 4.5 to 2.63.

First: FLDERLHCESHAKARVKPPEGYDV [Y7H]
Second: FLDERLFCESHAKARVKPPEGYDV [Y7F]
The protein stability index of the first is higher: 4.05 for the first, 2.79 for the second.

First: FLDERLSCESHAKARVKPPEGYDV [Y7S]
Second: FLDERLGCESHAKARVKPPEGYDV [Y7G]
The protein stability index of the first is higher: 3.89 for the first, 2.04 for the second.

Compared with FLDERLNCESHAKARVKPPEGYDV [Y7N], FLDERLECESHAKARVKPPEGYDV [Y7E] is lower in protein stability index: 4.26 for the first, 4.06 for the second.

Going from FLDERLVCESHAKARVKPPEGYDV [Y7V] to FLDERLICESHAKARVKPPEGYDV [Y7I], the protein stability index falls from 3.85 to 3.6.

First: FLFERLYCESHAKARVKPPEGYDV [D3F]
Second: FLMERLYCESHAKARVKPPEGYDV [D3M]
The protein stability index of the first is higher: 2.66 for the first, 1.48 for the second.

First: FLSERLYCESHAKARVKPPEGYDV [D3S]
Second: FLNERLYCESHAKARVKPPEGYDV [D3N]
The protein stability index of the first is lower: 1.03 for the first, 1.21 for the second.

Going from FLQERLYCESHAKARVKPPEGYDV [D3Q] to FLTERLYCESHAKARVKPPEGYDV [D3T], the protein stability index falls from 1.53 to 1.31.

Compared with FLGERLYCESHAKARVKPPEGYDV [D3G], FLVERLYCESHAKARVKPPEGYDV [D3V] is higher in protein stability index: 1.92 for the first, 2.5 for the second.

First: FLKERLYCESHAKARVKPPEGYDV [D3K]
Second: FLRERLYCESHAKARVKPPEGYDV [D3R]
The protein stability index of the first is higher: 2.49 for the first, 2.32 for the second.

Going from FLIERLYCESHAKARVKPPEGYDV [D3I] to FLPERLYCESHAKARVKPPEGYDV [D3P], the protein stability index rises from 1.94 to 2.64.

Compared with FLLERLYCESHAKARVKPPEGYDV [D3L], FLHERLYCESHAKARVKPPEGYDV [D3H] is higher in protein stability index: 2.27 for the first, 2.39 for the second.

— the supplement of paper PMC10567573
